The labels stand for the following.
B1: CPEB3 Ribozyme (parent)
chain: GGGGGCCACAGCAGAAGCGUUCACGUCGCGGCCCCUGUCAGAUUCUGGUGAAUCUGCGAAUUCUGCUGU

Variants of B1 are the subject of the series. In words: self-cleavage, relative activity (ratio to wild type); higher = more cleavage; co-transcriptional.
As for C24G C66A, the self-cleavage stood at 0.24.
As for C24G C66G, the self-cleavage is 0.28.
As for C24G G56U, the figure is 0.299; as for C24G G56A, 0.22.
As for C24G G65A, the figure is 0.26.
In the case of G25C C45G, the self-cleavage was found to be 0.147.
With G25C C45U the figure was 0.141; with C24U G68C, 0.928.
As for C24U G68U, the figure is 0.96; as for C24G C45A, 0.485; as for C24G C45U, 0.464.
With C24G C45G the figure was 0.436; with C24G U43A, 0.348.
As for C24G U43C, the self-cleavage is 0.309.
On to G25A U62A, for which the self-cleavage worked out at 0.187.
With G25A U62C the figure was 0.19; with G25A U53A, 0.171.
With G25A U53G the figure was 0.169; with G25A U53C, 0.206; with G25A G56U, 0.2.
In the case of C24G U38C, the self-cleavage was 0.413.
As for C24G U38G, the figure is 0.215.
As for G25C A40C, the figure is 0.173; as for G25C A40G, 0.158.
Take G25C A40U: the self-cleavage stood at 0.176.
As for C24G C63A, the figure is 0.237.
With C24G C63U the figure was 0.339; with C24G C63G, 0.199.
As for C24U A60C, the self-cleavage came out at 0.254.
As for G25A C39U, the figure is 0.229; as for G25A C39A, 0.237.
As for G25A C39G, the self-cleavage was determined as 0.16.
With G25A U36G the figure was 0.176.
With G25A U36C the figure was 0.292; with G25A U36A, 0.184; with G25A C27U, 0.169.
As for G25A C27A, the self-cleavage stood at 0.162.
As for G25A C27G, the figure is 0.208; as for C24G U67A, 0.368.
With G25A C32U the figure was 0.255; with G25A C32G, 0.131; with G25C G37C, 0.156.
As for G25C G37A, the figure is 0.171.
Take G25A G41C: the self-cleavage is 0.172.
As for G25A G41U, the figure is 0.197.
With C24U U67G the figure was 0.761.
For the variant C24U U67C, the self-cleavage amounted to 0.833.
With G25C C66A, the self-cleavage was found to be 0.134.
With G25C C66U the figure was 0.15; with G25C C66G, 0.0932.
With C24U U53C, the self-cleavage was 0.53.
As for C24G C39U, the figure is 0.217; as for C24U C34A, 0.263.
With C24U C34G the figure was 0.283; with C24U C34U, 0.858.
For the variant G25A U46C, the self-cleavage is 0.216.
As for G25A U46A, the figure is 0.267; as for C24G U46G, 0.471; as for C24G U46C, 0.505.
For the variant C24G U46A, the self-cleavage turned out to be 0.452.
For C24G C54A, the self-cleavage was 0.267.
As for C24G C54G, the figure is 0.351; as for C24G G68U, 0.699.
With C24G G68A the figure was 0.725; with C24U A51C, 0.782.
With C24U G50A the figure was 0.838.
Consider C24U G50C, for which the self-cleavage is 0.795.
As for G25C G48U, the self-cleavage was determined as 0.186.
In the case of G25C G48A, the self-cleavage is 0.16.
Take C24U U49G: the self-cleavage stood at 0.762.
With C24G G41C the figure was 0.18; with C24U G30U, 0.199; with C24U G30A, 0.389.
With G25C C35A the figure was 0.141; with G25C C35U, 0.177.
As for C24U C27G, the figure is 0.189; as for C24U C27U, 0.193; as for G25A U38C, 0.123.
For G25A U38A, the self-cleavage is 0.149.
In the case of G25A U38G, the self-cleavage turned out to be 0.153.
With G25C C39A the figure was 0.197.
G25C C39U: the self-cleavage was found to be 0.192.
With G25C C39G the figure was 0.164.
As for G25C U44A, the figure is 0.188; as for G25A G48A, 0.208.
Regarding G25A G48U, the self-cleavage turned out to be 0.236.
With C24U U43A, the self-cleavage came out at 0.679.
As for C24U U43G, the figure is 0.418; as for C24U U43C, 0.691; as for G25C U61G, 0.176.
With G25A A40U the figure was 0.153.
As for G25A A40C, the figure is 0.178; as for G25C G31U, 0.176; as for G25C G31C, 0.143.
Turning to C24G U36A, the self-cleavage was determined as 0.118.
With C24G U36C the figure was 0.171; with C24G U36G, 0.146; with C24U U46C, 0.714.
As to C24U U46A, the self-cleavage worked out at 0.852.
As to C24G G50A, the self-cleavage came out at 0.392.
In the case of C24G G50C, the self-cleavage worked out at 0.347.
As for C24G G50U, the figure is 0.441; as for G25A U26G, 0.148; as for G25A U26C, 0.297.
As for G25A U64G, the figure is 0.185; as for G25A U64C, 0.14; as for G25A U64A, 0.19.
In the case of C24U G41A, the self-cleavage was found to be 0.394.
For C24U G41U, the self-cleavage is 0.461.
As for G25C U53C, the figure is 0.0815; as for G25C U53G, 0.106.
As for C24U C54U, the figure is 0.808.
As for C24U C54A, the figure is 0.561.
Consider G25A C66U, for which the self-cleavage is 0.244.
G25A C66A: the self-cleavage came out at 0.196.
For C24U U64A, the self-cleavage worked out at 0.42.
As for C24U U64C, the figure is 0.531.
With C24U C33G the figure was 0.294; with C24U C33U, 0.856; with C24U C33A, 0.465.
As for G25C G68A, the figure is 0.255.
As for G25C G68U, the self-cleavage came out at 0.21.
On to G25C G68C, for which the self-cleavage was determined as 0.18.
As for G25A U55G, the figure is 0.235; as for G25A U55C, 0.152.
With C24G G48U the figure was 0.528.
As for C24G U62G, the self-cleavage stood at 0.203.
For the variant C24G U62A, the self-cleavage is 0.27.
As for G25A U44A, the figure is 0.138; as for G25A U44G, 0.11.
As for C24U U61G, the figure is 0.397.
With C24U U61A the figure was 0.431; with C24U U61C, 0.353.
On to C24G G25A, for which the self-cleavage turned out to be 0.22.
With C24G G25C the figure was 0.152.
Turning to C24U G65U, the self-cleavage worked out at 0.352.
Regarding C24U G65A, the self-cleavage amounted to 0.39.
C24U G31A: the self-cleavage was determined as 0.316.
C24U G31U: the self-cleavage is 0.271.
For the variant C24G U55A, the self-cleavage came to 0.36.
As for C24G U55G, the figure is 0.191.
As for C24U C32G, the self-cleavage came to 0.211.
Turning to C24U C32A, the self-cleavage was 0.414.
Turning to G25A C34A, the self-cleavage is 0.196.
Consider G25A C34U, for which the self-cleavage was 0.185.
As for C24U G58C, the figure is 0.742.
In the case of C24U G58U, the self-cleavage came out at 0.879.
For the variant C24U A52C, the self-cleavage was found to be 0.791.
For G25C G28U, the self-cleavage was 0.16.
With G25C G28A the figure was 0.14; with G25A G65A, 0.189.
On to G25A A60G, for which the self-cleavage is 0.171.
As for G25A A60U, the figure is 0.188; as for G25C G41A, 0.123; as for G25C G41C, 0.0934.
With C24U G37U the figure was 0.251.
With C24U C63G the figure was 0.328; with G25C C32A, 0.147; with G25C C32G, 0.173.
For the variant C24U A42G, the self-cleavage came to 0.631.
As for C24U A42U, the figure is 0.654.
Consider G25C G65U, for which the self-cleavage stood at 0.151.
As for G25C G65C, the figure is 0.18.
With C24U U69A the figure was 0.895; with C24U U69G, 0.909.
As for C24G G28A, the figure is 0.14; as for C24G U69C, 0.739.
